Assay results reported in patent publication US9526737B2, “Oxysterols for activation of hedgehog signaling, osteoinduction, antiadipogenesis, and Wnt signaling” (THE REGENTS OF THE UNIVERSITY OF CALIFORNIA, priority 2007, dated 2016).

Experiments:
[1] = test system: TCF/Lef transcriptional activity; experiment: TCF/Lef luciferase reporter assay (TBE4-luc); type: cell-based; settings: M2 cells, 24 hours; 5 μM SS, 200 ng/ml Shh or 40 mM LiCl
Experimental: (§1) M2-10B4 cells at 70% confluence were transfected for 24 hours using FuGENE 6 Transfection Reagent (Roche Applied Science, Indianapolis, Ind.) according to manufacturer's instructions. The wild-type and mutant TCF/LEF binding site driven luciferase constructs (TBE4-luc and TBE4-luc-mut, repectively) were generous gifts from Dr. Baruch Frenkel (University of Southern California, Los Angeles, Calif.), and the Cyclin D1 promoter element-driven luciferase construct (Cyclin D1-luc) was a generous gift from Dr. Fanxin Long (Washington University, St. Louis, Mo.). Firefly luciferase values were normalized to Renilla luciferase activity and pEGFP-NI was used to evaluate transfection efficiency. Cells were then treated for 24, 48, or 72 hours with test agents before measuring luciferase activity using the Dual-Luciferase Reporter 1000 Assay System (Promega, Madison, Wis.) according to the manufacturer's instructions.
M2 cells were transfected with a luciferase reporter driven by 4 wild-type or mutant TCF/Lef DNA binding sites (TBE4-luc and TBE4-luc-mut, respectively) and analyzed for their response to 5 μM SS, 200 ng/ml Shh, 40 mM LiCl, or control vehicle after 24 h of treatment (see FIG. 3A).

[2] = test system: TCF/Lef transcriptional activity (Cyclin D1 promoter element); experiment: Cyclin D1 promoter element luciferase reporter assay (Cyclin D1-luc); type: cell-based; settings: M2 cells, 24 hours; 5 μM SS or 40 mM LiCl
Experimental: as §1
M2 cells were transfected with a luciferase reporter driven by a Cyclin D1 promoter element (Cyclin D1-luc) and analyzed for their response to 5 μM SS, 40 mM LiCl, or control vehicle after 24 h of treatment (see FIG. 3B).

Axin2 mRNA expression = experiment: Q-RT-PCR for Axin2 mRNA expression; type: cell-based; settings: M2 cells, 8 and 48 hours; 5 μM SS, 200 ng/ml Shh, 40 mM LiCl
Experimental: (§2) Total RNA was extracted with the RNA isolation kit from Stratagene (La Jolla, Calif.) according to the manufacturer's instructions. RNA was DNase-treated using the DNA-free kit from Ambion, Inc. (Austin, Tex.). 3 μg of RNA was reverse-transcribed using reverse transcriptase from Stratagene (La Jolla, Calif.) to make single stranded cDNA. The cDNAs were mixed with Qi SYBR Green Supermix from Bio-Rad Laboratories (Hercules, Calif.) for quantitative RT-PCR using a Bio-Rad I-cycler IQ quantitative thermocycler. All PCR samples were prepared in triplicate or quadruplicate. Each sample was added to duplicate wells of a 96-well plate. After 40 cycles of PCR, melt curves were analyzed in order to ensure primer specificity, and the identity of all PCR products were verified by sequencing and comparing with the complete mRNA sequence obtained from PubMed's GenBank. Fold changes in gene expression were calculated using the ΔΔCt method (14). All primers were designed using the Beacon Designer software from Bio-Rad Laboratories (Hercules, Calif.). […]
M2 cells were treated with 5 μM SS, 200 ng/ml Shh, 40 mM LiCl, or control vehicle for 8 or 48 h. RNA was isolated and analyzed by Q-RT-PCR for Axing expression (See FIGS. 4A and 4B).

[3] = test system: Cyclin D1 mRNA expression; experiment: Q-RT-PCR for Cyclin D1 mRNA expression; type: cell-based; settings: M2 cells
Experimental: as §2
M2 cells were treated with 5 μM SS, 200 ng/ml Shh, or control vehicle for 8 or 48 h. RNA was isolated and analyzed by Q-RT-PCR for Cyclin D1 expression (See FIGS. 4C and 4D).

[4] = test system: hedgehog signaling pathway; experiment: Hedgehog signaling pathway activation (8X-Gli reporter, Gli 1 and Patched Q-RT-PCR, cyclopamine inhibition); type: cell-based; settings: M2 cells
Experimental: M2-10B4 bone marrow stromal cells were transfected with an 8XGli luciferase reporter or the empty vector (pGL3b). Cells were subsequently treated with control vehicle, 5 μM Oxy49, or 400 ng/ml recombinant human sonic hedgehog (Shh) as positive control. After 48 hours of treatments, reporter luciferase activity was measured and normalized to Renilla luciferase activity (See FIG. 14). […] M2-10B4 bone marrow stromal cells were transfected with an 8XGli luciferase reporter or the empty vector (pGL3b). Cells were subsequently treated with control vehicle, 5 μM Oxy34, or 400 ng/ml recombinant human sonic hedgehog (Shh) as positive control. After 48 hours of treatments, reporter luciferase activity was measured and normalized to Renilla luciferase activity (See FIG. 15). […] After 48 hours of treatments, mRNA was extracted from cells and analyzed by Q-RT-PCR for expression of hedgehog target genes Gli 1 and Patched (See FIGS. 16A and 16B). […] Luciferase reporter activity using a reporter construct with 8X-Gli binding sites • 2. Q-RT-PCR analysis of the induction of hedgehog pathway target gene expression Gli 1 and Patched • 3.

[5] = test system: M2-10B4 marrow stromal cells; experiment: 45Ca incorporation assay (matrix mineralization); type: cell-based; settings: M2 cells pre-treated 2 h with inhibitor, then SS for 12-14 days
Experimental: ^45Ca incorporation assay as a measure of matrix mineralization in cell monolayers was performed as previously described (45).
^45Ca incorporation assay (see Example above) was used to measure mineralization in M2 cells pre-treated with 1 μg/ml Dkk-1 or vehicle for 2 h, and then treated with control vehicle or 2.5 μM SS 12 days (See FIG. 2D).
^45Ca incorporation assay was used to measure mineralization in M2 cells pre-treated with various doses of LY, 1 μM Wm, or vehicle for 2 h, and then treated with 5 μM SS or control vehicle for 14 days (See FIG. 7C).
M2-10B4 cells were treated for 14 days with control vehicle (C) or various concentrations (μM) of oxysterols as indicated. SS refers to 20S-hydroxycholesterol+22S-hydroxycholesterol in combination. After 12 days with refeeding every 5th day, ^45Ca was added and on day 14, ^45Ca incorporation was measured (See FIG. 18).

[6] = test system: osteocalcin (OCN) mRNA expression; experiment: Q-RT-PCR for osteocalcin (OCN) mRNA expression; type: cell-based; settings: M2 cells pre-treated 2 h with inhibitor, then SS
Experimental: as §2
M2 cells were pre-treated with vehicle or 1 μg/ml Dkk-1 for 2 h followed by treatment with control vehicle or 5 μM SS for 6 days. RNA was isolated and analyzed by Q-RT-PCR for OCN expression (See FIG. 2E).
RNA was analyzed for OCN expression by Q-RT-PCR and normalized to GAPDH (p<0.01 for Control versus SS and for SS versus SS+LY and SS+Wm) (See FIG. 7B).

[7] = test system: Runx2 DNA binding activity; experiment: Runx2 DNA binding activity by EMSA analysis; type: cell-based; settings: M2 cells
[8] = test system: Naked Cuticle 2 (Nkd2) mRNA expression; type: cell-based; settings: M2 cells pre-treated 2 h with inhibitor, then 5 μM SS for 48 h
Experimental: (§3) Total RNA was extracted with the RNA isolation kit from Stratagene (La Jolla, Calif.) according to the manufacturer's instructions. RNA was DNase-treated using the DNA-free kit from Ambion, Inc. (Austin, Tex.). 3 μg of RNA was reverse-transcribed using reverse transcriptase from Stratagene (La Jolla, Calif.) to make single stranded cDNA. The cDNAs were mixed with Qi SYBR Green Supermix from Bio-Rad Laboratories (Hercules, Calif.) for quantitative RT-PCR using a Bio-Rad I-cycler IQ quantitative thermocycler. All PCR samples were prepared in triplicate or quadruplicate. Each sample was added to duplicate wells of a 96-well plate. After 40 cycles of PCR, melt curves were analyzed in order to ensure primer specificity, and the identity of all PCR products were verified by sequencing and comparing with the complete mRNA sequence obtained from PubMed's GenBank. Fold changes in gene expression were calculated using the ΔΔCt method (14). All primers were designed using the Beacon Designer software from Bio-Rad Laboratories (Hercules, Calif.). Primers used are as follows: OCN (5′-[…]-3′ (SEQ ID NO: 1) and 5′-[…]-3′ (SEQ ID NO: 2)), Axin2(5′[…]-3′ (SEQ ID NO: 3) and 5′-[…]-3′ (SEQ ID NO: 4)), Cyclin D1(5′-[…]-3′ (SEQ ID NO: 5) and 5′-[…]-3′ (SEQ ID NO: 6)), NKD2 (5′-[…]-3′ (SEQ ID NO: 7) and 5′[…]-3′ (SEQ ID NO: 8)), WIF-1 (5′-[…]-3′ (SEQ ID NO: 9) and 5′-[…]-3′ (SEQ ID NO: 10)), and GAPDH (5′-[…]-3′ (SEQ ID NO: 11) and 5′-[…]-3′ (SEQ ID NO: 12)).
(§4) M2 cells were treated with 5 μM SS, 200 ng/ml Shh, or control vehicle for 48 h. RNA was isolated and analyzed by Q-RT-PCR for Nkd2 (E) and WIF-1 (F) expression (See FIGS. 4E and 4F).
(§5) M2 cells were pre-treated for 2 h with vehicle or cyclopamine (Cyc) at the concentrations indicated. Next, cells were treated with 5 μM SS or control vehicle for 48 h. RNA was isolated and analyzed for Nkd2 (A) and WIF-1 (B) expression by Q-RT-PCR (See FIGS. 5A and 5B).
(§6) M2 cells were pre-treated for 2 h with Dkk-1 or vehicle. Next, cells were treated with 5 μM SS or control vehicle for 48 h. RNA was isolated and analyzed for Nkd2 (C), Wif-1 (D), and Ptch (E) expression (See FIGS. 5C-5E).
(§7) M2 cells were pre-treated for 2 h with 5 μM LY, 2.5 μM Wm, or vehicle followed by treatment with 5 μM SS or control vehicle for 48 h. RNA was isolated and analyzed for Nkd2 (FIG. 7E) and Wif-1 (FIG. 7F) expression.

[9] = test system: Wnt Inhibitory factor-1 (Wif-1) mRNA expression; type: cell-based; settings: M2 cells pre-treated 2 h with inhibitor, then 5 μM SS for 48 h
Experimental: as §3, §4, §5, §6, §7

[10] = test system: Patched (Ptch) mRNA expression; experiment: Q-RT-PCR for Patched (Ptch) mRNA expression; type: cell-based; settings: M2 cells pre-treated 2 h with inhibitor, then 5 μM SS for 48 h
Experimental: as §2
M2 cells were pre-treated for 2 h with Dkk-1 or vehicle. […] RNA was isolated and analyzed for Nkd2 (C), Wif-1 (D), and Ptch (E) expression (See FIGS. 5C-5E).

[11] = test system: M2-10B4 marrow stromal cells; experiment: Alkaline phosphatase (ALP) activity assay
Experimental: The protocol is a modification of alkaline phosphatase assay kit from Sigma. Cells are cultured in 24-well tissue culture plates. After treatments with test agents, cells are rinsed twice with PBS and scraped into 200 ml of lysis buffer (0.2% NP-40 in 1 mM MgCl2) and sonicated for 10 seconds. Next, 1 ml of reaction mixture is added to each well. Reaction mixture is 221 alkaline buffer (Sigma): stock substrate solution (1:1). Stock substrate solution is prepared by dissolving 40 mg of Sigma 104 phosphatase substrate in 10 ml of ddH2O. After addition of reaction mixture to lysed cells, incubation is performed for 30 minutes at 37 C. […] The reaction is stopped by the addition of 12 ml of 1N NaOH to each well, and absorbance is determined at 405 nm. Alkaline phosphatase activity is calculated using p-nitrophenol as a standard, according to Sigma kit's instructions. Results are normalized to total protein in each well determined using the Bio-Rad protein assay solution (Bio-Rad Laboratories).
M2-10B4 marrow stromal cells were treated with oxysterols at various doses for 3 days after which they were collected and analyzed by calorimetric assay for alkaline phosphatase activity (a marker of osteoblastic differentiation) (Table 1); the alkaline phosphatase assay described above was used.
M2-10B4 marrow stromal cells were treated with oxysterols at various doses for 3 days after which they were collected and analyzed by colorimetric assay for alkaline phosphatase activity (a marker of osteoblastic differentiation) (Table 2); the alkaline phosphatase assay described above was used.
M2-10B4 bone marrow stromal cells were treated in culture with control vehicle (C) or various oxysterol (Oxy) molecules as indicated at either 1.25 (1) or 2.5 (2) μM concentrations. After 3 days of treatment, alkaline phosphatase activity as a measure of early osteogenic differentiation of cells was measured in whole cell lysates (See FIG. 9 and Table 3); the alkaline phosphatase assay described above was used.

[Cl-].[Li+] [LiCl, lithium chloride]
TCF/Lef reporter activity compared to untreated control cells [1]: significantly induced | Cyclin D1 promoter element TCF/Lef reporter activity [2]: activated | Axin2 mRNA expression (Axin2 mRNA expression): induced its expression at both time points | Cyclin D1 mRNA expression ([3]; 8 hours): did not induce | Cyclin D1 mRNA expression ([3]; 48 hours): inhibited its baseline expression

O=c1cc(N2CCOCC2)oc2c(-c3ccccc3)cccc12 [LY, LY 294002]
Inhibition of oxysterol-induced hedgehog pathway activation [4]: did not inhibit

B1: Dkk-1: recombinant mouse Dickkopf related protein 1; LRP5/6 inhibitor, Wnt signaling inhibitor (protein, UniProt O54908 32-272, looked up)
Dickkopf-related protein 1: TLNSVLINSNAIKNLPPPLGGAGGQPGSAVSVAPGVLYEGGNKYQTLDNYQPYPCAEDEECGSDEYCSSPSRGAAGVGGVQICLACRKRRKRCMRHAMCCPGNYCKNGICMPSDHSHFPRGEIEESIIENLGNDHNAAAGDGYPRRTTLTSKIYHTKGQEGSVCLRSSDCAAGLCCARHFWSKICKPVLKEGQVCTKHKRKGSHGLEIFQRCYCGEGLACRIQKDHHQASNSSRLHTCQRH
Inhibition of oxysterol-induced mineralization (45Ca incorporation) [5]: Complete and below baseline level inhibition | Inhibition of oxysterol (SS)-induced OCN mRNA expression [6]: did not inhibit | Inhibition of oxysterol-induced Runx2 DNA binding activity [7]: did not inhibit | Inhibition of oxysterol-induced Nkd2 expression [8]: almost completely inhibited | Inhibition of oxysterol-induced Wif-1 expression [9]: only minimally inhibited | Inhibition of oxysterol-induced Patched (Ptch) mRNA expression [10]: did not inhibit | Inhibition of BMP-2-induced ALP activity ([11]; M2 cells pre-treated 2 h with 1 or 2 μg/ml Dkk-1, then 50 ng/ml BMP-2 for 3 days): only significantly inhibited by using the higher concentration | Inhibition of Shh-induced ALP activity ([11]; M2 cells pre-treated 2 h with inhibitor, then 200 ng/ml Shh for 3 days): partially inhibited | Inhibition of oxysterol-induced ALP activity ([11]; M2 cells pre-treated 2 h with inhibitor, then 2.5 μM SS for 3 days): partial but significant inhibition | ALP activity, agent alone ([11]; M2 cells, Dkk-1 1 or 2 μg/ml without oxysterol): no observed effect
